Data reported in PMC3665621 (Nuclear medicine and biology, 2013).

Experiments:
[1] = test system: HPAC tumor-bearing SCID mice; conditions: mouse, in vivo
cathepsin B = conditions: room temperature, up to 96 hours

Row | cleaved bond (cathepsin B) | Substance | increase of tumor accumulation from 24 h to 72 h post-injection [1] [%] | lower liver retention compared to control (177Lu-MAC0) [1] [fold]
1 |  | X = GSS, Y = PMGLP [177Lu-MAC2] | 113 | 2.1
2 | G-G, 24 h | DO3A(tBu)3-G- (D)S(tBu)-(D)S(tBu)-G- G-G-F |  | 
